# Measurements: patent US20230047413A1 (Janssen / Centocor, published 2023)
# Changes are numbered by the printed parent chain.
# B1: B330 (Fab of B711) (Fab, V domains shown)
# VH: QVQLVESGGGVVQPGRSLRLSCAASGFTFTSYAMSWVRQAPGKGLEWVASITKGGNTYYADSVKGRFTISRDNSKNTLYLQMNSLRAEDTAVYYCARGWGIYGWFAYWGQVTLVTVSS
# VL: DIQMTQSPSSLSASVGDRVTITCKASQDINRWLNWFQQKPGKAPKSLIYRANRLLDGVPSRFSGSGSGTDFTLTISSLQPEDFATYYCLQYDEFPLTFGQGTKLEIK
# notes: the Fab's constant parts and tag are not described; also called M330; M333 (the Fab of B711)
# B2: B280 (antibody, human IgG1, V domains shown)
# VH: B1 VH with Q1E, V5L, V11L, R16G, T30S, A49S, T52S, R97K, I101D
# VL: DIVMTQTPLSSPVTLGQPASISCKASQDINRYLNWLQQRPGQPPRLLIYRANRLLDGVPDRFSGSGAGTDFTLKISRVEAEDVGVYYCLQYDEFPLTFGQGTKLEIK
# notes: Humanized (HFA) PT3 variant, human IgG1/kappa; also called VH91/VL80
# B3: B235 (antibody, human IgG1, V domains shown)
# VH: B1 VH with Q1E, V5L, V11L, R16G, T30S, A49S, T52S, R97K, I101D
# VL: B1 VL with W32Y
# notes: Humanized (HFA) PT3 variant, human IgG1/kappa; also called VH91/VL77
# B4: PT1 mAb (hyb) (antibody, V domains shown)
# VH: QVQLQQSGTELMKPGASVKISCKATGYTFSSSWMGWVKQRPGHGLEWIGDILPGSGGTNYNERFKGKASFTAETSSNTAYMQLSSLTSEDSAVYYCVRSYYDYDRFANWGQGTLVTVSA
# VL: DIVMTQAAPSVPVTPGESVSISCRSSESLLHSNGNTYLYWFLQRPGQSPQLLIYRMSNLASGVPDRFSGSGSGTAFTLRISRVEAEDVGVYYCMQYLEYPLTFGAGTKLELK
# B5: B326 (Fab of B252) (Fab, V domains shown)
# VH: B1 VH with V11L, Q13K, R16G, T30S, V37I, A49S, T52S, S74A, T77S, I101D
# VL: B2 VL
# notes: also called B252 Fab
# Assays:
# [1] = biological target: T1, tau phospho-peptide of the direct ELISA of Example 11; test: direct ELISA, peptide coated
# T1 construct: also called pT217 peptide; pT212/pT217 peptide
# T1 sequence (main, as listed by the source): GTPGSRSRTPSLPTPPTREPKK
# Procedure: (§1) Binding to tau phospho-peptide was analysed by ELISA where peptide (10 ng/mL) was directly coated to the plate overnight. […] After incubation with antibodies, plates were washed and 50 μL per well of HRPO labelled anti-Fab antibody (Jackson Immunoresearch laboratories) (diluted 1:10000 in blocking buffer). After another washing step detection was performed with “One step” TMB (Thermo Scientific) according to the manufacturers' instructions. Plates were analysed in EnVision® 2102 Multilabel Reader (Perkin Elmer, Waltham, Mass., USA). Binding curves were generated using GraphPad Prism7.0 software.
# [2] = biological target: T2, PHF-tau (paired helical filament tau isolated from Alzheimer's disease brain) (human, UniProt P10636-8 2-441, limits assumed, hyper-phosphorylated, aggregated; sites not listed for the preparation); test: SPR ProteOn, PHF-tau capture-coupled via HT7, 1:1 model; upper end of range
# T2 construct: also called enriched PHF-tau; ePHF-tau
# T2 sequence (P10636 other isoform, or with tags, fused parts or gaps limits assumed): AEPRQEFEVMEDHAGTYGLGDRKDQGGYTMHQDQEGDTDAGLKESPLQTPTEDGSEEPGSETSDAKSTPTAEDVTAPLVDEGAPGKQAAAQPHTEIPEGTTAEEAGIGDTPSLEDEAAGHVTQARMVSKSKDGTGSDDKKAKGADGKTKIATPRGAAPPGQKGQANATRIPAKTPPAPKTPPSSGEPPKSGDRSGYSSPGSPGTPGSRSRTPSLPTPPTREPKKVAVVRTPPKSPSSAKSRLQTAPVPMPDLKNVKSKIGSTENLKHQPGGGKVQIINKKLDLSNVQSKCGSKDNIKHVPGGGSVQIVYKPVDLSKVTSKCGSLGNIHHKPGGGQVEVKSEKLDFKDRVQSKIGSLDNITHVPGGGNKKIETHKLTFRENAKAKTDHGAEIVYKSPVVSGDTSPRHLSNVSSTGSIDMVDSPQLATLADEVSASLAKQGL
# Procedure: (§2) Affinity matured monoclonal antibodies were tested for binding to PHF-tau isolated from Alzheimer's disease brain.
# (§3) A GLC sensor chip was covalently immobilized with a mouse anti-tau antibody, HT7 (ThermoFisher, catalog# MN1000) using the vendor recommended protocol for amine-coupling chemistry (˜5000 response units, RU). The coupling buffer was 10 mM, pH 4.5 sodium acetate. PHF-tau was prepared by 2-times centrifugation at 5000×g in 5° C. for 10 min. […] After capture-coupling, the surface was activated and deactivated to generate a homogenous PHF-tau surface for antibody binding studies. The anti-tau antibodies and their Fabs (prepared in running buffer, 0.024-75 nM at 5-fold dilutions) were injected at 50 μL/min over the PHF-tau surface to measure binding. The association and dissociation profiles were monitored for 4 minutes and 2 hours, respectively. After dissociation, the sensor chip was regenerated using multiple injections of 10 mM Glycine pH 2.0 and the running buffer. A reference surface (without any PHF-tau) was used to monitor non-specific binding of the injected mAbs or Fabs. HT7 antibody was used as a positive control. The binding sensorgrams for mAbs were fit using a bivalent binding model where the apparent affinity or avidity-driven binding (KD) was reported as the ratio of off-rate and on-rate (koff/kₒₙ). A 1:1 Langmuir binding model was used for kinetics analysis of Fabs.
# [3] = biological target: T2, PHF-tau (paired helical filament tau …); test: SPR ProteOn, PHF-tau capture-coupled via HT7, 1:1 model
# Procedure: as §2, §3
# [4] = biological target: T2, PHF-tau (paired helical filament tau …); test: SPR ProteOn, PHF-tau capture-coupled via HT7, 1:1 model; lower end of range
# Procedure: as §2, §3
# [5] = biological target: T1, tau phospho-peptide of the direct ELISA …; test: direct ELISA on plate-coated tau phospho-peptide, Fabs
# Procedure: as §1
# Peptide-2 [6] = biological target: T3, Peptide-2 (human, phosphothreonine 212, phosphothreonine 217 (tau 2N4R numbering); short chain biotin (SCBiot) and dPEG4 at the N-terminus; amide at the C-terminus); test: SPR ProteOn, mAb captured, peptide as analyte
# T3 construct: also called pT212/pT217-tau peptide (Peptide-2)
# Procedure: (§4) A subset of HFA-PT3 monoclonal antibody variants, selected based on biophysical characterization and ELISA binding to PHF, were analyzed by Surface Plasmon Resonance (SPR) with a ProteOn XPR36 for binding to the following phosphopeptides: pT212/pT217-tau peptide (Peptide-2, SEQ ID NO: 48) and pT212-tau peptide (Peptide-8, SEQ ID NO: 54). All experiments were performed at 25° C. using PBST, pH 7.4, (Bio-Rad Cat#176-2720) as both running buffer and sample dilution buffer.
# (§5) Monoclonal antibody/Peptide binding. […] Anti-human IgG was amine-coupled to the chip surface using EDC/NHS, then washed with ethanolamine. Antibodies were diluted to 2 μg/mL in PBST and injected on the surface for 5 min at 30 μL/min to achieve a maximum density of 900-1000 RU. Peptides were injected as analytes at 60 μL/min for 3 min, followed by 5 min dissociation. Peptide-2 was diluted in PBST to generate a three-fold concentration series (0-30 nM) and measured in duplicate. Single measurements of monoclonal antibody binding to Peptide-8 were recorded over the concentration range 0-100 nM.
# (§6) Data were double referenced by subtraction of the interspot response, and the curves generated by the buffer only injection. The chip surface was regenerated with 0.85% phosphoric acid, followed by PBST injection before the next antibody titration injection. Data processing and analysis were performed using instrument software. The data were fit using a simple Langmuir 1:1 binding model.
# Peptide-2 [7] = biological target: T3, Peptide-2; test: SPR ProteOn, mAb captured, peptide as analyte; range of n=2
# Procedure: as §4, §5, §6
# [8] = biological target: T2, PHF-tau (paired helical filament tau …); test: SPR ProteOn, PHF-tau capture-coupled via HT7, bivalent model
# Procedure: (§7) A subset of HFA-PT3 monoclonal antibodies was tested for binding to PHF-tau isolated from Alzheimer's disease brain. All interactions were studied at 25° C. using PBS pH 7.4, supplemented with 3 mM EDTA, and 0.005% Tween 20 as running or system buffer. HT7 (Pierce, catalog #MN1000), a mouse anti-tau antibody, was used as a positive control.
# (§8) The interaction of anti-tau monoclonal antibodies with PHF-tau was analyzed by ProteOn using a biosensor surface prepared by capture-coupling PHF-tau using HT7 as the capture reagent. PHF-tau was prepared by 2-times centrifugation at 5000×g at 5° C. for 10 min; the supernatant from the second centrifugation was then diluted 1/40 in running buffer. To prepare the chip, HT7 was covalently immobilized to the surface of a GLC (ProteOn) sensor chip using the manufacturer's instructions for amine-coupling chemistry (˜5000 response units (RU)). The coupling buffer was 10 mM sodium acetate, pH 4.5. After HT7 immobilization, PHF-tau was injected and captured (˜300 RU) by HT7. After capture, PHF-tau was covalently immobilized to the sensor chip by activation of the chip using the manufacturer's instructions for amine-coupling chemistry. Remaining reactive sites were blocked by the injection of ethanolamine. After preparation and stabilization of the PHF-tau-modified surface and reference surface (containing no antigen), the anti-tau antibodies were diluted in the running buffer and injected in solution (0.12-75 nM in 5-fold dilutions). The association was monitored for 3 minutes (120 μL injected at 40 μL/min). The dissociation was monitored for 15 minutes. Regeneration of the sensor surface was performed using 10 mM Gly pH 2.0. The data for monoclonal antibodies were fit using a bivalent binding model where the apparent affinity (KD) was reported as the ratio of koff/kₒₙ. A Langmuir 1:1 binding model was used for kinetics analysis of Fabs.
# Peptide-2 [9] = biological target: T3, Peptide-2; test: SPR ProteOn, mAb captured, peptide as analyte; range of n=2; upper end of n=2 range
# Procedure: as §4, §5, §6
# Peptide-8 = biological target: T4, Peptide-8 (human, phosphothreonine 212 (tau 2N4R numbering); SCBiot and dPEG4 at the N-terminus; amide at the C-terminus); test: SPR ProteOn, mAb captured by anti-human Fc, peptide as analyte; poor data fit
# T4 construct: also called pT212-tau peptide (Peptide-8)
# Procedure: as §4, §5, §6
# Peptide-2 [10] = biological target: T3, Peptide-2; test: SPR ProteOn, mAb captured, peptide as analyte; range of n=2; lower end of n=2 range
# Procedure: as §4, §5
# as §6, with “The data were fit using a simple Langmuir 1:1 binding model.” left out
# [11] = biological target: T2, PHF-tau (paired helical filament tau …); test: SPR ProteOn, PHF-tau
# Peptide-2 [12] = biological target: T3, Peptide-2; test: SPR ProteOn, peptide captured, Fab as analyte; range of n=2
# Procedure: as §4
# (§9) Fab/peptide binding. Biotinylated peptide was captured on a neutravidin-coated NLC biosensor chip pre-conditioned with PBST, and Fab was flowed over the surface to measure kinetic parameters. Approximately 5-10 RU of peptide was captured on the chip surface by diluting peptide to 10 ng/mL in PBST and injecting over the flow channels at 30 μL/min for 100 s. Serial dilutions of PT3 Fab (1.1 nM to 90 nM) were injected at 60 μL/min for 3 minutes (association phase), followed by 300 s of buffer only (dissociation phase).
# as §6
# [13] = biological target: T2, PHF-tau (paired helical filament tau …); test: SPR ProteOn, PHF-tau capture-coupled via HT7, 1:1 model; remark: listed apart in the source
# Procedure: as §7, §8
# Peptide-2 [14] = biological target: T3, Peptide-2; test: SPR ProteOn, peptide captured, Fab as analyte; range of n=2; upper end of n=2 range
# Procedure: as §4, §9, §6
# [15] = biological target: T2, PHF-tau (paired helical filament tau …); test: SPR ProteOn, PHF-tau on chip
# Peptide-2 [16] = biological target: T3, Peptide-2; test: SPR ProteOn, peptide captured, Fab as analyte
# Procedure: as §4, §9, §6
binder,measurement,setting,value
B1,EC50,[1],0.107 nM
same,Kd,[2],0.0158 nM
same,koff,[2],7.36e-05 s⁻¹
same,kon,[2],4.66e+06 M⁻¹ s⁻¹
same,Kd,[3],0.0156 nM
same,koff,[3],7.15e-05 s⁻¹
same,kon,[3],4.6e+06 M⁻¹ s⁻¹
same,Kd,[4],0.0153 nM
same,koff,[4],6.94e-05 s⁻¹
same,kon,[4],4.53e+06 M⁻¹ s⁻¹
same,EC50 (read off the curve),[5],~0.2 nM
B2,Kd,Peptide-2 [6],0.769 nM
same,koff,Peptide-2 [6],0.00274 s⁻¹
same,kon,Peptide-2 [6],4.71e+06 M⁻¹ s⁻¹
same,Kd,Peptide-2 [7],0.418 to 1.12 nM
same,koff,Peptide-2 [7],0.00246 s⁻¹
same,kon,Peptide-2 [7],2.21e+06 M⁻¹ s⁻¹
same,Kd,[8],0.055 nM
same,koff,[8],5.63e-05 s⁻¹
same,kon,[8],1.02e+06 M⁻¹ s⁻¹
same,koff,Peptide-2 [9],0.00301 s⁻¹
same,kon,Peptide-2 [9],7.2e+06 M⁻¹ s⁻¹
same,Kd,Peptide-8,34.7 nM
same,koff,Peptide-8,0.00757 s⁻¹
same,kon,Peptide-8,218000 M⁻¹ s⁻¹
B3,Kd,Peptide-2 [6],1.79 nM
same,koff,Peptide-2 [6],0.00569 s⁻¹
same,kon,Peptide-2 [6],3.21e+06 M⁻¹ s⁻¹
same,Kd,Peptide-2 [7],1.71 to 1.86 nM
same,kon,Peptide-2 [7],2.84e+06 M⁻¹ s⁻¹
same,Kd,[8],0.165 nM
same,koff,[8],8.06e-05 s⁻¹
same,kon,[8],490000 M⁻¹ s⁻¹
same,koff,Peptide-2 [10],0.00528 s⁻¹
same,koff,Peptide-2 [9],0.0061 s⁻¹
same,kon,Peptide-2 [9],3.58e+06 M⁻¹ s⁻¹
B4,Kd,[11],0.322 nM
same,koff,[11],6.47e-05 s⁻¹
same,kon,[11],201000 M⁻¹ s⁻¹
B5,Kd,Peptide-2 [12],0.387 to 0.599 nM
same,koff,Peptide-2 [12],0.000304 s⁻¹
same,kon,Peptide-2 [12],507000 M⁻¹ s⁻¹
same,Kd,[13],0.224 nM
same,koff,[13],0.00023 s⁻¹
same,kon,[13],1.02e+06 M⁻¹ s⁻¹
same,koff,Peptide-2 [14],0.000353 s⁻¹
same,kon,Peptide-2 [14],912000 M⁻¹ s⁻¹
same,fold weaker KD than the mouse PT3 parent Fab B187,[15],3.3 fold
same,Kd,Peptide-2 [16],0.493 nM
same,koff,Peptide-2 [16],0.000329 s⁻¹
same,kon,Peptide-2 [16],710000 M⁻¹ s⁻¹
